{
  "source": "patent US20030003461",
  "about": "“Truncation selex method” (Gilead Sciences, Inc., published 2003)",
  "binders": {"B1": {"name": "CD70syn (ssRNA)", "RNA": "GGGUGCCUUUUGCCUAGGUUGUGAUUUGUAACCUUCUGCCCA", "modifications": "2'-F pyrimidines (inferred)"}, "B2": {"name": "rffG isolate 1 (ssRNA)", "RNA": "GGGAAAGCCCACGCCGGCACGCGUAUUCACUGAGCAUCAGCCAGACUGUGUACCGAACUGCCGCACC"}, "B3": {"name": "rffG minus fixed sequences (ssRNA)", "RNA": "GGCACGCGUAUUCACUGAGCAUCAGCCAGACUGUGU"}, "B4": {"name": "T1-11 (ssRNA)", "RNA": "GGGAGGAAGAAUUGGAAACAUUGCUCGUCAGACGACUCGCCCGA", "modifications": "2'-F pyrimidines"}, "B5": {"name": "VEGF hyb 10,16b (ssRNA)", "RNA": "GGGAGGACGAUGCGGUGAAACGGAAGAAUUGGAAACAUUGCUCGUCAGACGACUCGCCCGA", "modifications": "2'-F pyrimidines"}},
  "key": {"[1]": {"biological_target": "TGFβ1 (Homo sapiens, UniProt P01137 P01137:279-390)", "sequence (P01137 279-390, one chain of several)": "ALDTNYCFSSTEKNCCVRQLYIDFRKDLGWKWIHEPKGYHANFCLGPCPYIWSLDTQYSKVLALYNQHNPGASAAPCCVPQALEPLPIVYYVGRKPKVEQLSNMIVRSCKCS", "experiment": "cell_activity; full inhibition of TGFβ1 in mink lung epithelial cell proliferation assay", "details": "tags: recombinant human, R&D Systems; chain copies: 2", "experimental": "RNA was synthesized by phosphoramidite chemistry. Indicator cells (mink lung epithelial cells) were incubated with TGFβ1 and dilutions of RNA as described. The extent of cell proliferation was measured by ³H-thymidine incorporation and the data were analyzed as described. The points represent an average of n=2 and error bars are standard errors. The sequence of CD70syn and 30N7-9syn are 5′[…] (SEQ ID NO:323) and 5′[…] (SEQ ID NO:324), respectively.\nThe bioactivity of TGFβ1 nucleic acid ligands was measured with mink lung epithelial cells as described in U.S. patent application Ser. No. 09/046,247, filed Mar. 23, 1998. Briefly, proliferation of these cells is inhibited by TGFβ1. Human TGFβ1 was titrated on the cells and ³H-thymidine incorporation was measured. The point at which ³H-thymidine incorporation by the cells was inhibited by 90-100% was determined (typically 1-4 pM). This inhibitory amount of TGFβ1 along with varying amounts of nucleic acid ligand (typically 0.3 or 1 nM to 1 or 3 μM, in 3 fold increments) was used. Cells were plated at 1×10⁵/ml in 96-well plates in 100 μl MEM, 10 mM HEPES pH 7.5, 0.2% FBS. […] After incubation, the cells were lysed with 1% Triton X-100 and harvested onto GF/B filter plates by the Packard 96 well plate harvester, and ³H-thymidine incorporation in cellular DNA was quantitated by scintillation counting in microscint at the Packard Top-Count. […]"}, "[2]": {"biological_target": "T1, MS2 coat protein (MS2 CP) (bacteriophage MS2, UniProt P03612 P03612:2-130, V75E;A81G)", "experiment": "filter; tightest of the isolates; 100 mM HEPES-KOH pH 7.5, 80 mM KCl, 10 mM MgCl2, 24-25 C", "details": "chain copies: 2 (dimer, stated); hairpin"}, "[3]": {"biological_target": "T1, MS2 coat protein (MS2 CP)", "experiment": "filter; only marginally worse than full isolate", "details": "chain copies: 2 (dimer, stated); hairpin"}, "[4]": {"biological_target": "T2, VEGF (Homo sapiens, UniProt P15692-4 P15692-4:27-191)", "T2 sequence (P15692 other isoform, or with tags, fused parts or gaps)": "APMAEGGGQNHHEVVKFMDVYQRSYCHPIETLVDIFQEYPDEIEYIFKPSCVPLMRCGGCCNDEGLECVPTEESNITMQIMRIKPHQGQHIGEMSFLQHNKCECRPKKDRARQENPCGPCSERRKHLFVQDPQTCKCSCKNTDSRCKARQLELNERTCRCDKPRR", "experiment": "filter; phenotype 5: non-binding with or without 3' fixed sequence", "details": "tags: recombinant human, R&D Systems; chain copies: 2"}, "[5]": {"biological_target": "T2, VEGF", "experiment": "filter; phenotype 4: unaffected (Table 10 clone 34,36a: phenotype 1)", "details": "tags: recombinant human, R&D Systems; chain copies: 2"}},
  "data": [
    {"binder": "B1", "values": [
      {"measurement": "Ki", "setting": "[1]", "result": "~74.6", "unit": "nM"}
    ]},
    {"binder": "B2", "values": [
      {"measurement": "binding result", "setting": "[2]", "result": "binds"}
    ]},
    {"binder": "B3", "values": [
      {"measurement": "binding result", "setting": "[3]", "result": "binds"}
    ]},
    {"binder": "B4", "values": [
      {"measurement": "binding result", "setting": "[4]", "result": "no binding"}
    ]},
    {"binder": "B5", "values": [
      {"measurement": "binding result", "setting": "[5]", "result": "binds"}
    ]}
  ]
}
